# Source: the supplement of paper PMC12042874
# ± gives the uncertainty stated by the source.
# Assay: amyloid nucleation score (Sup35N fusion, yeast selection) (log enrichment); library NNK2; higher = more nucleation; inactive = no reads after selection
# How it was run: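 Peptides of 20 random codons fused to Sup35N were expressed in psi-negative yeast, induced 24 hours with 100 μM copper sulfate, then grown 7 days at 30°C on medium lacking adenine and uracil. Input and output plasmid inserts were Illumina-sequenced. Nucleation score is the DiMSum log enrichment of output over input reads, centred on the mode score of non-aggregating sequences, excluding sequences with under 100 input reads. Random libraries had three technical output replicates.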
row,Substance,amyloid nucleation score
1,GCVGAVRRLEGSIVYEDRTL,0.944 ± 0.25
2,GCVLSVSWWVGSSLVNWGYY,5.356 ± 0.052
3,GCVPVRYIARSAWNNPDLPN,0.829 ± 0.57
4,GCWYIDIWL,1.73 ± 0.11
5,GCYRLNSLYATIQLRLLSWW,-0.46 ± 1.1
6,GDFSPYYCHCYIIMVCGMLG,inactive
7,GDIMKCSRCSATLGEPMKRC,0.218 ± 1.1
8,GDQPRPKMLLSWHRFLLQQS,0.887 ± 0.19
9,GDTCELCSVCQVNGV,1.15 ± 0.17
10,GDVGAVRVSCVCWLVLVKRG,0.066 ± 0.76
11,GDVLPNTSTGIFFSQPIMCA,0.501 ± 0.43
12,GDYYFV,-1.19 ± 1
13,GENSVLRSGNFKYKAWFCGG,-0.342 ± 1
14,GEPSCATCITVCLVLLSTQM,6.48 ± 0.081
15,GEQLLED,inactive
16,GESNMVYCLYQGTILSFAGW,8.379 ± 0.04
17,GFDYLIFLNKHRLVMSWSFE,-0.675 ± 1.1
18,GFGNFVINDWSLR,-1.56 ± 1.1
19,GFGSVLIW,-0.523 ± 1
20,GFIGNCYSFASLFGPMSHYV,-0.588 ± 1.1
21,GFIISFYISDSCKSLCWQPM,0.339 ± 0.53
22,GFKVF,-0.937 ± 0.31
23,GFLFRFETRKTHRSCLSWIG,1.71 ± 0.13
24,GFLIKWNNGVLVLVSAMMCI,-0.598 ± 0.4
25,GFMFGMLTISLRSVMFVARV,-0.227 ± 0.32

row,Substance,amyloid nucleation score
1,GFRDMGDHIDVREKFSWADA,inactive
2,GFRIGTLLGTMINSMNCSFI,2.88 ± 0.12
3,GFRSLNVSRANLCSYIRHLL,0.02 ± 0.44
4,GFSLNISKCVFLRFIWVFHF,-0.447 ± 1.1
5,GFTENKIRDVFGVFHFIVGD,0.479 ± 0.8
6,GFVDTTLCMVNLFYGRKSHL,7.862 ± 0.047
7,GFVGF,2.68 ± 0.17
8,GFWFFIYVDCVLCVSPTRIN,-0.663 ± 0.56
9,GFWKTYNTFVLSWSRTNCLQ,0.431 ± 0.64
10,GFYYRRSMESGNTFSGCSTA,-0.776 ± 0.62
11,GGCCSLPLACNKKGCCYWVA,1.84 ± 0.47
12,GGCSTRWHKDVYDNGDNGDF,-0.545 ± 0.63
13,GGISNVCLSYVRFQEFVFNV,5.69 ± 0.093
14,GGLTIAKFCESMVLLRFSRT,0.399 ± 0.32
15,GGQDDVIGLRKSVMAENRVH,0.537 ± 0.42
16,GGSKLVLLFE,-0.81 ± 0.76
17,GGSLPMFWKIMPGRHCGK,-0.019 ± 0.32
18,GGVHGGFRSYVVAIWYGMLN,-1.37 ± 1.1
19,GGVYASKYLCGYIKLSLKAS,-0.154 ± 0.3
20,GHKDSEDGLNTKFFRRSN,inactive
21,GICRKNDRTSDQRYFVKSL,-0.575 ± 0.53
22,GIFIFNAFEEMSVGKDSELL,-0.529 ± 0.27
23,GIGLRLCLSDRLWMRSIYVD,3.56 ± 0.082
24,GIHCGR,3.24 ± 0.06
25,GIIAMHSLPRQIGIVLFIAR,3.3 ± 0.088

row,Substance,amyloid nucleation score
1,GIIISRSNKLFFVKCCNN,1.7 ± 0.079
2,GIKDI,-1.05 ± 0.79
3,GIKHLKGTNDTSMYCHVSIV,0.298 ± 0.4
4,GILWRGVLVRYVCPVVSTSI,inactive
5,GIMYGEFMPLR,inactive
6,GIQGLSLYRLLSPALWSPSG,0.168 ± 0.49
7,GISRGLILEVTC,1.12 ± 0.43
8,GITPRKDFFYYTLVDTCLVL,-0.198 ± 0.46
9,GITSFDTIYCGRVVYQRWLL,0.578 ± 0.81
10,GIVFVLLLMNVFEVCRSELM,inactive
11,GKDGTFRVVPRQEDRSAHWL,-0.464 ± 1.1
12,GKHIGSLSEWTMVHHDGARR,1.21 ± 0.32
13,GKILVAFLWPISCVR,0.037 ± 0.65
14,GKITVRDISYVRIWRDSLLY,3.25 ± 0.1
15,GKMPIRNNKVLLKRSATNLC,5.63 ± 0.067
16,GKPCH,0.52 ± 0.33
17,GKSSHG,0.93 ± 0.32
18,GKTYVGYFLFNLTGTVYFKR,0.004 ± 1.1
19,GLDCR,0.024 ± 0.44
20,GLFLRSTP,-0.402 ± 0.42
21,GLIMVSSVLCTFAGMGDNWA,5.84 ± 0.091
22,GLIVKLMGIFRNRSETSESQ,4.47 ± 0.083
23,GLLIGSDDLLASVICVITCS,-1.15 ± 1.1
24,GLLSCMPCRGINLLPSVIRR,1.21 ± 0.61
25,GLSGKCLYFISVWYTKFLIS,inactive

row,Substance,amyloid nucleation score
1,GLSNR,0.458 ± 0.28
2,GLSVKTGQGSGFPDLCVGKR,0.838 ± 0.17
3,GLVFRS,inactive
4,GLVGPSI,-0.29 ± 0.48
5,GLVNSTPRKRKLFKGDAVHS,0.321 ± 0.48
6,GLVRSRVWRRASSPGYGECV,1.3 ± 0.33
7,GLYGMGIQMGPRISVSYPAA,0.536 ± 0.65
8,GMEINAYY,0.048 ± 0.65
9,GMIGNTIGNECTIYLNDQYV,0.825 ± 0.34
10,GMKCAAFSESVNHRLQFNGT,-0.345 ± 0.33
11,GMSSIINVELAGQWTWVKFN,4.18 ± 0.066
12,GMTVR,0.011 ± 0.54
13,GMVEAR,0.095 ± 0.46
14,GMVVFVI,0.21 ± 0.51
15,GMWFLRLSSFTCI,5.722 ± 0.049
16,GNCCDDCP,1.53 ± 0.24
17,GNEVRGNTMVENPTMSLVMG,0.712 ± 0.39
18,GNLLKREFAIVFFSVYKQEA,-0.27 ± 0.76
19,GNLLVGAKSMVLSRFIGLYR,2.16 ± 0.23
20,GNMKCQVTLILMSTSDIREL,7.039 ± 0.041
21,GNQRFVFVLRMGTVGPLHMF,0.836 ± 0.55
22,GNRSTVLRSNLDVYLQDGTV,1.51 ± 0.32
23,GPFNKMYAYEIRQTGAFWRQ,-0.098 ± 0.79
24,GPITWTNSSGCRIPMPSFSE,1.42 ± 0.36
25,GPLFRFFRHRAFLQSTFSA,-0.342 ± 0.24

row,Substance,amyloid nucleation score
1,GPLGHVGLFV,inactive
2,GPMRGC,-0.548 ± 1.1
3,GPRLEGWSPPDRAVLSGCSD,0.656 ± 0.44
4,GPVVIVDNFQYDCLA,-0.109 ± 0.76
5,GQGDYMRFSDNAGGPYSKLE,1.73 ± 0.24
6,GQGKRNVSLSNGGDKFNLDV,4.98 ± 0.1
7,GQIAKVKPVRWKFKTTTWGS,1.26 ± 0.41
8,GQLNLGCWSYRGSRFWTWLR,inactive
9,GQNTDVTCQRYERTM,0.329 ± 0.62
10,GRAPLSNNLMDSVTVESVHM,-0.744 ± 0.28
11,GRCYIISCPESWHKPMYVAI,0.142 ± 0.34
12,GRGERCKGSKIGCSRKAKID,0.98 ± 0.3
13,GRHQVIGMWCSRLFPLVRRS,0.375 ± 0.56
14,GRMQTKTILKNIECNNDSLM,2.39 ± 0.057
15,GRNLFSFVFQMLV,0.043 ± 0.29
16,GRRLKGYVTSGIEDWLKGRM,0.908 ± 0.35
17,GRSGIFCLPCMLCKFY,6 ± 0.064
18,GRSSAWFNEGRLW,0.383 ± 0.39
19,GRVRKSHTVGSACNILYSCA,1.32 ± 0.29
20,GSCNRKRHDVAYHLKCGMVA,1.09 ± 0.14
21,GSHKK,-1 ± 1.1
22,GSIVVNGIGKLGKERRVTSV,0.302 ± 0.21
23,GSKALVSGGFVSGVKYGKAI,inactive
24,GSKNFPRPIPDYVWVFTGAI,0.032 ± 0.43
25,GSNIEGY,-0.512 ± 0.46

row,Substance,amyloid nucleation score
1,GSQVYPPPPMADM,0.426 ± 0.3
2,GSRCITQVLA,0.157 ± 0.49
3,GSRHRDLYLGLRLYYTDVEV,-0.763 ± 0.36
4,GSRPEWARVLGSLEIGCGAK,0.535 ± 0.3
5,GSTVKSIVCDSVWS,0.082 ± 0.65
6,GSVGGSGIAACGTSDGGTVR,2.02 ± 0.27
7,GSVRSMVGFNACRTSLYESC,0.012 ± 1
8,GSVRYWK,-0.685 ± 0.36
9,GSWFVPRMSLSWAGSETGPQ,inactive
10,GTCLSFYEFNSWWIIKMFSK,0.657 ± 0.23
11,GTIYLFRWSFMWRFWMGTGL,-0.644 ± 0.54
12,GTKKARSGARQCLGWEILWM,0.516 ± 0.43
13,GTLGFDLKR,-0.507 ± 0.76
14,GTLPSGICSRKGMPT,0.283 ± 0.28
15,GTNHWTVRLIYLVLHLDRDG,0.583 ± 0.41
16,GTNKAYFNASFMD,-0.875 ± 0.44
17,GTPRFEVNIMFHTVDS,1.57 ± 0.22
18,GTPVSLNFVLESRTRYQMGA,inactive
19,GTSIFHRKDGASTDMACQPF,0.14 ± 0.63
20,GTWKVGQSYVVRVRLFFLLW,-0.369 ± 0.36
21,GVAELNLN,inactive
22,GVCMSLEVKNKKLSNEHNS,5.18 ± 0.092
23,GVCSGFPFVRFRNIYIRRLA,3.22 ± 0.078
24,GVDLGIRRAFT,0.578 ± 0.62
25,GVEQFFGRSSAVHL,-0.341 ± 0.79

row,Substance,amyloid nucleation score
1,GVFSY,-0.967 ± 0.29
2,GVGSCTRQLWRISRSTPLKL,2.65 ± 0.069
3,GVHISRVVCQN,0.265 ± 1.1
4,GVHYEKEGVRTSVFSDLSWE,-0.021 ± 0.3
5,GVPALGFGLAGLTVACFAEE,-0.097 ± 0.34
6,GVPDCLLCVNSIYQGSLSFG,5.24 ± 0.09
7,GVPESGIFLRAHY,inactive
8,GVSFSDYLSACCLDAGVSGY,0.773 ± 0.23
9,GVTSRYTDSVSCGYPDSMML,0.594 ± 0.45
10,GVVEYRNFADSIVYGSRKFK,-0.685 ± 0.76
11,GVWSITNRFQEIVGNCLCVR,0.576 ± 0.16
12,GWAIPFADIEHCHVLLRISV,0.914 ± 0.46
13,GWLHMYY,-0.268 ± 0.36
14,GWRCSNPPASIKWCATLYSV,2.08 ± 0.2
15,GWRLTRDRVG,1.31 ± 0.18
16,GWSYTEVYFMIASCYII,1.16 ± 0.29
17,GWVKDDWDFTLMRPRFVGRG,-0.143 ± 0.76
18,GYDVERDNFDCVVTKDELFW,-0.427 ± 0.21
19,GYIAYATVWGLQDNGSRSIA,-0.637 ± 0.25
20,GYIGGVSWNISVVVCSS,2.71 ± 0.11
